Ends that are not written are not given here. * marks the point of attachment. Biotin = O=C1N[C@H]2[C@H](CS[C@H]2CCCCC(=O)*)N1

Experimental findings from PMC12809912, “Structural and epitope characterization of anti-DEFA5 monoclonal antibodies clones 1A8 and 4F5 for inflammatory bowel disease subtype diagnostics” (International journal of biological macromolecules, 2025) are described below.

Common to all, as to conditions: both partners purified
Test [1] concerns the target T1, peptide variant of … with the N-terminal Ala61 deleted (Homo sapiens, UniProt Q01523).
T1 construct: also called N-terminal deletion mutant; source: synthetic peptide (GenScript, >95 % purity)
T1 chain: RATCYCRTGRCATR
Put plainly: ELISA; indirect peptide ELISA: peptide coated at 5 ug/mL overnight at 4 C, antibody in PBST with 1 % BSA 2 h at 37 C, HRP goat anti-mouse IgG, OD 450 nm. Background: ELISA stands for enzyme-linked immunosorbent assay.

Test [2] addresses T2, peptide No. 57 of the overlapping library, DEFA5 amino acids 61-75 (ARATCYCRTGRCATR) (Homo sapiens).
T2 construct: human DEFA5 amino acids 61-75; source: synthetic peptide (GenScript, >95 % purity)
T2 chain: ARATCYCRTGRCATR
The test is described as above.

Test [3] addresses T3, biotinylated DEFA5 epitope peptide Biotin-RATCYCRTGRCAT (Homo sapiens, cysteine pairing not given here).
T3 construct: human DEFA5 residues 62-74; source: synthetic peptide
T3 chain: Biotin-RATCYCRTGRCAT
Kind of test: SPR; Biacore 8K, Biotin-RATCYCRTGRCAT immobilised on SA chip (~95 RU), antibodies injected 7.81-125 nM, 25 C, HBS-EP+, 30 uL/min, global fit to a 1:1 binding model.

B1: mouse monoclonal antibody clone 1A8 (anti-DEFA5) (antibody, V domains shown)
VH: QVQLQQSGAELVRPGASVKMSCKALGYTFFDYEMHWMKQTPVYGLEWIGAIHPGSGDTAYNQKFKGKATLTADKSSNTAYMELSSLTSEDSAVYYCTREGTVVAPFDYWGQGTTLTVSS
VL: DVLMTQTPLSLPVSLGDQASISCRSSQSIVHSNGNTYLEWYLQKPGQSPKLLINKVSNRFSGVPDRFSGSGSGTDFTLKISRVEAEDLGVYYCFQGSYVPYTFGGGTKLEIK
notes: the print has a blank between NYKNT and PIMDTDG; Whole IgG, intact mass ~148.73 kDa; also called mAb 1A8; source: mouse hybridoma clone, purified monoclonal antibody
A word on the Kd: it is the concentration at which binding is half-saturated. Lower therefore signals tighter binding. The term stoichiometry N denotes the number of molecules, sites or subunits per partner or assembly. For B1, the binding result in test [1] and in test [2] was “binds” throughout. In addition, in test [3], the affinity, expressed as Kd, was 13.5 nM. In test [3], the “stoichiometry N” value was found to be 1.

B2: mouse monoclonal antibody clone 4F5 (anti-DEFA5) (antibody, V domains shown)
VH: QVQLQQSGAELVRPGASVKMSCKALGYTFFDYEMHWMKQTPVYGLEWIGAIHPGSGDTAYNQKFKGKATLTADKSSNTAYMELSSLTSEDSAVYYCTREGTVVAPFDYWGQGTTLTVSS
VL: DVLMTQTPLSLPVSLGDQASISCRSSQSIVHSNGNTYLEWYLQKPGQSPKLLINKVSNRFSGVPDRFSGSGSGTDFTLKISRVEAEDLGVYYCFQGSYVPYTFGGGTKLEIK
notes: the print has a blank between NYKNT and PIMDTDG; Whole IgG, intact mass ~148.65 kDa; also called mAb 4F5; source: mouse hybridoma clone, purified monoclonal antibody
Consider B2, for which, in test [1], the binding result is on record as “binds”. In addition, in test [2], the binding result is “binds”. Further, in test [3], binding was characterised by a dissociation constant (Kd) of 15 nM and the “stoichiometry N” value was 1.
